Laboratory results as given in article PMC4315244.

Tests used:
[1] = molecular target: Nup82-Flag-TEV-ProtA (S. cerevisiae) (UniProt P40368); assay: AUC + SEC
[2] = molecular target: Nup82 (of the Nup82–Nup159tail–Flag-Nsp1C complex) (S. cerevisiae) (UniProt P40368); assay: SEC-MALS
Nup82 (of the Nup82–Nup159tail–Flag-Nsp1C complex) (S. cerevisiae), sequence (P40368 whole entry, one chain of several): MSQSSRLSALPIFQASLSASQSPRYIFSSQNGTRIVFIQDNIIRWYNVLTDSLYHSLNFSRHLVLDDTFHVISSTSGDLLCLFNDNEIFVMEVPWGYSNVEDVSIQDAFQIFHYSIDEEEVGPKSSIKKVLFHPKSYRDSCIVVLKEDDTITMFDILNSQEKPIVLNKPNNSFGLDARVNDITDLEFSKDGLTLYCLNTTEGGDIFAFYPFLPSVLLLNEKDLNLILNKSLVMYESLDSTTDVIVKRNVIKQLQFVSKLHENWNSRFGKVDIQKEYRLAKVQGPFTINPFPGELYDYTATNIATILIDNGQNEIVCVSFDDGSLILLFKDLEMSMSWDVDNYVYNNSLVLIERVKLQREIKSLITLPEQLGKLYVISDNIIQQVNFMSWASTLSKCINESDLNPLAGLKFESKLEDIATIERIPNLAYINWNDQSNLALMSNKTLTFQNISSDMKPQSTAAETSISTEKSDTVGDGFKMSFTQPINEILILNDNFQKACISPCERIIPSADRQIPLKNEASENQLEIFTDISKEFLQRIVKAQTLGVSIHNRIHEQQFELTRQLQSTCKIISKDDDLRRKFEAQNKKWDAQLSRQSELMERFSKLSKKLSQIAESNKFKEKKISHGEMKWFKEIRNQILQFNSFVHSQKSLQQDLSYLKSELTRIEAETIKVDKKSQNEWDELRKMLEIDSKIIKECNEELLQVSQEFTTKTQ

Nup82-Flag-TEV-ProtA, sequence (P40368 whole entry): as the sequence (P40368 whole entry, one chain of several) above
Nup159 tail (domain or fragment), sequence (P40477 whole entry, the tested form may be a part): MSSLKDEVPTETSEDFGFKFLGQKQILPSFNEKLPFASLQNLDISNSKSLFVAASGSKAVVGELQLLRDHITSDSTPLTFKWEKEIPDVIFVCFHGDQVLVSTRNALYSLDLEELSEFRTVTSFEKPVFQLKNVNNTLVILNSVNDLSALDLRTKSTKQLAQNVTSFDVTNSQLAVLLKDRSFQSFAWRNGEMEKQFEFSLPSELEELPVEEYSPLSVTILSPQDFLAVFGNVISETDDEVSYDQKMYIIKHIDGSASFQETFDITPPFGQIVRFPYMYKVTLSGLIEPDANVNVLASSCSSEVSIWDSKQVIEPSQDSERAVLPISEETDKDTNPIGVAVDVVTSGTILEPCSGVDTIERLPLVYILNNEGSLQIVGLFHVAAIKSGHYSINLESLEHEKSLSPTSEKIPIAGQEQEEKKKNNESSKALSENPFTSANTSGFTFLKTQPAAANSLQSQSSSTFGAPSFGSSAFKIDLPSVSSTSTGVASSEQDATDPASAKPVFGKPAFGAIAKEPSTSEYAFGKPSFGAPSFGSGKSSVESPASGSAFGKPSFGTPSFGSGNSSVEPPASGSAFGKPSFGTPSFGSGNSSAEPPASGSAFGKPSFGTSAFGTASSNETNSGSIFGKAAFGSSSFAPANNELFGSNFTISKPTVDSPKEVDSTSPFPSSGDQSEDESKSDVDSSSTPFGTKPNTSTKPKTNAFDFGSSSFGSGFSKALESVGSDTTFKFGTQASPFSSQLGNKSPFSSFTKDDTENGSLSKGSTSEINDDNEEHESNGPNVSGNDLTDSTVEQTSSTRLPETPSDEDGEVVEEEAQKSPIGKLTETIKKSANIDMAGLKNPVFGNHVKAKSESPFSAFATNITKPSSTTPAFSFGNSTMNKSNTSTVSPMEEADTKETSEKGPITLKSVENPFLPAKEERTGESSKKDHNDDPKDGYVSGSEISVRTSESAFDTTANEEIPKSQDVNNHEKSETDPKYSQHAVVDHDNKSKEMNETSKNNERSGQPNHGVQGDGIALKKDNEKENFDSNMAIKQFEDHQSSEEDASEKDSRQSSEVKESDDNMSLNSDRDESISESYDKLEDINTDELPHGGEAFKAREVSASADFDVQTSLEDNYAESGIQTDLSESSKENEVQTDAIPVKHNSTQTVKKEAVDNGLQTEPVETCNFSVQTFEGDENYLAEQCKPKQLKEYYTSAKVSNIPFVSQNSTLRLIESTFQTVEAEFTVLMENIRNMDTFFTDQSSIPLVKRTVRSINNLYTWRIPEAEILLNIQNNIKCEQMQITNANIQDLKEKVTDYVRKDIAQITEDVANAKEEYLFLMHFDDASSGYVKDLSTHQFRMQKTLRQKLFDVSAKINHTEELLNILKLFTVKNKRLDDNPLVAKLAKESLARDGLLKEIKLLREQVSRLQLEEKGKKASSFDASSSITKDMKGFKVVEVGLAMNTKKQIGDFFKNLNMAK

Row | Substance | stoichiometry N [1] | stoichiometry N [2]
1 | Nup82-Flag-TEV-ProtA (from UniProt P40368 1-713) (natural protein; other documents disagree on this pair) | 2 | –
2 | Nup159 tail (domain or fragment) | – | 1
